According to the supplement of paper PMC11865577:

What was measured:
Assay in all cases: pull-down binding Z-score (relative to library population); higher = stronger binding
Settings in all cases: RNA library: Library-2
TO-N3 (biotin conjugate) = system: TO-N3 (biotin conjugate)
Summary of the method: (§1)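 Heat-folded RNA library (1 μg, Cy5 or Cy3 end label, phosphate/NaCl/KCl buffer) was captured for 60 min at 25 °C on streptavidin beads displaying 100 pmol of biotin-conjugated small molecule, then washed three times. The bound fraction, eluted in hot SDS, was hybridised to a DNA barcode microarray at 55.5 °C for 20 h. Z-scores for binding were taken against the library mean and standard deviation after beads-only subtraction and trimmed averaging of replicate barcoded probes.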

[1] = system: TO-N3-2 (biotin conjugate)
Summary of the method: as §1

[2] = system: TO-3-N3-2 (biotin conjugate)
Summary of the method: as §1

[3] = system: TO-3-N3 (biotin conjugate)
Summary of the method: as §1

Sequence | pull-down binding Z-score (TO-N3 (biotin conjugate)) | pull-down binding Z-score [1] | pull-down binding Z-score [2] | pull-down binding Z-score [3]
CCUUAUAAUUCACAGAAUGCUGUAGCCUCAAAGAUUUUGGGACUACCAACUCAAACUGUUGAUUCAUCACAGG [DMSMaPseq_invitro_SARS-CoV-2_Motif_319] | -0.341 | 0.0157 | -0.324 | -0.541
AUGCCUUUUUACCUUUUGCUAUGGGUAUUAUUGCUAUGUCUGCUUUUGCAAUGAUGUUUGUCAAACAUAAGCAUGCAU [DMSMaPseq_invitro_SARS-CoV-2_Multi_36_ComplexLevel_1] | 0.0122 | -0.261 | 0.472 | 0.159
GUUUUCUACAAAGAAAAC | -1.09 | -1.75 | -0.524 | -0.676
GUUGCUGUACCUACAGGUUAUGUUGAUACACCUAAUAAUACAGAUUUUUCCAGAGUUAGUGCUAAACCACCGCCUGGAGAUCAAU [SHAPE_invitro_SARS-CoV-2_Multi_51_ComplexLevel_1] | 0.691 | 0.329 | -0.139 | 0.475
UGCCGACUACUAUAGCAAAGAAUACUGUUAAGAGUGUCGGUA | -0.385 | -0.182 | -0.206 | -0.357
GCGCUGCCAGAAACUGGCUAAGCGC [bulge-UA] | -0.911 | -0.61 | -0.353 | -0.669
GUUUAUGAAAAACUCAAACCCGUCCUUGAUUGGCUUGAAGAGAAGUUUAAGGAAGGUGUAGAGUUUCUUAGAGAC | 0.416 | -0.0848 | -0.241 | 0.121
CUGCCUAUAUGGAAG | -0.773 | -0.645 | -0.364 | -0.492
GGCUCAUAGACUUCCUUAAGGAUGUAAUGGAGUC [IAV_invivo_PB1_2_Motif_10+IAV_invivo_PB1_2_Motif_10] | 0.795 | 1.62 | -0.15 | 0.164
GGGGACGACCU [IAV_invivo_NA_6_Motif_17+IAV_invivo_NA_6_Motif_17] | 0.481 | -0.0675 | -0.417 | 0.479
GGUCUAUAUGCC [SHAPE_invivo_SARS-CoV-2_Motif_218] | 0.0896 | -0.475 | -0.349 | 0.153
CCCGGAAAUAGCAGGAAGACCCAAAGUAAGAGAUCAAGCUGGG [IAV_invivo_HA_4_Motif_10+IAV_invivo_HA_4_Motif_10] | -0.157 | 0.433 | 0.505 | -0.309
UCCAUUUUUGGGUGUUUAUUACCACAAAAACAACAAAAGUUGGA [SHAPE_invitro_SARS-CoV-2_Motif_398] | -1.29 | -0.616 | 0.136 | -1.12
CGGCAUCAUAUGGGUUGCAACUGAGGGAGCCUUGAAUACACCAAAAGAUCACAUUGGCACCCGCAAUCCUGCUAACAAUGCUG [SHAPE_invitro_SARS-CoV-2_Motif_522] | -0.253 | 0.334 | 0.0568 | -0.511
CAACGUAAGUUG [DMSMaPseq_invitro_SARS-CoV-2_Motif_215] | -0.732 | -1.6 | -0.477 | -0.34
GGAAUUGUGUUAAUUGUGAUACAUUCU [SHAPE_invitro_SARS-CoV-2_Motif_150] | -0.949 | -0.855 | -0.388 | -0.83
UGAUGCGUAUUAUGACAUGGUUGGAUAUGGUUGAUACUAGUUUGUCUGGUUUUAAGCUAAAAGACUGUGUUAUGUAUGCAUCA | -0.861 | -0.569 | -0.285 | -0.867
CAUCGUUGAUAGUG [SHAPE_invitro_SARS-CoV-2_Motif_152] | 0.76 | 0.588 | 0.263 | 0.718
UGGCAUGGAAGUCA [DMSMaPseq_invitro_SARS-CoV-2_Motif_525] | -0.262 | -0.318 | -0.289 | 0.0287
GAGACGGUCGGGUCCAGAUAUUCGUAUCUGUCGAGUAGAGUGUGGGCUCC [Broccoli] | 1.12 | 1.99 | 0.495 | 0.184
UGUCCGUGAUCCACAGACA | -0.9 | -0.685 | -0.597 | -0.695
GACAGUGGUUGCCUACGGGUACGCUGCUUGUC | 0.666 | 0.01 | -0.021 | 0.731

Sequence | pull-down binding Z-score (TO-N3 (biotin conjugate)) | pull-down binding Z-score [1] | pull-down binding Z-score [2] | pull-down binding Z-score [3]
ACAGCAGAGUGCUGU [IAV_invivo_M1_M2_7_Motif_17+IAV_invivo_M1_M2_7_Motif_17] | -0.887 | -1.37 | -0.794 | -0.599
GUUGGAUAAUGAUGCACUCAACAACAUUAUCAAC | -1.35 | -0.9 | -0.75 | -0.974
GUGCCUGGAAUAUUGGUGAACAGAAAUCAAUACUGAGUCCUCUUUAUGCAUUUGCAUCAGAGGCUGCUCGUGUUGUACGAUCAAUUUUCUCCCGCAC [SHAPE_invivo_SARS-CoV-2_Motif_37] | -0.115 | 0.225 | -0.0608 | -0.254
GGGCAAGCUGUCUCAAAUGUCC [IAV_invivo_PA_3_Motif_10+IAV_invivo_PA_3_Motif_10] | -0.543 | 0.0264 | -0.226 | -0.508
AAGAGAAAGUCAACAUCAAUAUUGUUGGUGACUUUAAACUU | 0.557 | -0.494 | -0.0741 | 0.608
UGUACUUGGAUUGGCUGCAAUCAUGCAAUUGUUUUUCAGCUAUUUUGCAGUACA [SHAPE_invivo_SARS-CoV-2_Motif_149] | -0.78 | -0.907 | -0.559 | -0.482
UACCGAUGCCAUAGAGGUG [IAV_invivo_PB1_2_Motif_30+IAV_invivo_PB1_2_Motif_30] | -0.0495 | 0.166 | -0.0397 | -0.183
CAGGUAUGAAUGAUACUUACCUG [U1snRNP5ss-11] | 0.898 | 0.225 | 0.369 | 1.06
GCGCUGCCAGAAACUGGCUUGAGCGC [bulge-UUG] | 0.932 | 0.434 | 0.543 | 1.04
AUAGAUUAUGUACCACUAAAGUCUGCUACGUGUAUAACACGUUGCAAUUUAGGUGGUGCUGUCUGU | -1.01 | -0.77 | -0.399 | -0.766
GGUUUGUUGCC [IAV_invivo_PB1_2_Motif_26+IAV_invivo_PB1_2_Motif_26] | -0.146 | -0.374 | -0.261 | 0.00909
CAUAAACGAACUUAUGGAUUUGUUUAUG | -0.904 | -1.25 | -0.393 | -0.474
AAUCAUACAUCACCAGAUGUUGAUU [SHAPE_invitro_SARS-CoV-2_Motif_454] | -0.814 | -0.903 | -0.477 | -0.503
AGGUCAAAUCAAUGAUAUGAUUUUAUCU [SHAPE_invitro_SARS-CoV-2_Motif_388] | -1.31 | -1.35 | -0.624 | -0.87
ACGUGGCUUUGGAGACUCCGUGGAGGAGGUCUUAUCAGAGGCACGU | 0.0366 | 0.34 | 0.0243 | -0.105
UAAUAACGCUACUAAUGUUGUUAUUA | -1.02 | -1.73 | -0.411 | -0.595
CUAUCAGGCCGGUAG [DMSMaPseq_invitro_SARS-CoV-2_Motif_406] | -0.672 | -0.0779 | -0.579 | -0.61
GUGGCACUGAGAAUUUGACUAAAGAAGGUGCCAC | 0.595 | 0.38 | 0.147 | 0.452
ACACAUUCUGACAAAUUCACAGAUGGUGU [SHAPE_invitro_SARS-CoV-2_Motif_350] | -0.471 | 0.264 | -0.395 | -0.577
ACCAUUGGUAGAUUUGCCAAUAGGU | -0.966 | -1.45 | -0.848 | -0.133
CAACUCUCAUGAAGUGUGAUCAUUGUGGUGAAACUUCAUGGCAGACGGGCGAUUUUGUUAAAGCCACUUGCGAAUUUUG | -0.161 | 0.0444 | -0.197 | -0.573
GUUUGUGUAUCUACUAGUGGUAGAUGGGUACUUAAC | -0.726 | -1.05 | -0.279 | -0.677

Sequence | pull-down binding Z-score (TO-N3 (biotin conjugate)) | pull-down binding Z-score [1] | pull-down binding Z-score [2] | pull-down binding Z-score [3]
GCGCUUCAGCGUUCUUCGGAAUGUCGCGC | -0.787 | -0.654 | -0.453 | -0.429
AGGUAAGUAUGAUACUUACCUG [U1snRNP5ss-2] | -0.856 | -0.8 | -0.581 | -0.742
UGUCAUUACUUCAGGUGAUGGCA | -0.14 | -1.31 | -0.0892 | 0.0463
UGCAAGAGAUGGUUGUGUUCCCUUGAACAUAAUACCUCUUACA [DMSMaPseq_invitro_SARS-CoV-2_Motif_219] | -1.01 | -1.18 | -0.0456 | -0.678
UGAUAGUCAACAAACUGUUGGUCAACAAGACGGCAGUGAGGACAAUCA | 0.595 | -0.167 | 0.241 | 0.68
AAUUAUGAAGAUUUACUCAUUCGUAAGUCUAAUCAUAAUU | -0.429 | -0.858 | -0.3 | -0.0299
UACAUGUGUUGGUAGCGAUAAUGUUACUGACUUUAAUGCAAUUGCAACAUGUG [DMSMaPseq_invitro_SARS-CoV-2_Multi_49_ComplexLevel_1] | -0.826 | -0.909 | 0.0202 | -0.662
GCCAUUUGUCAUGAUGGAAAAGCACACUUUCCUCGUGAAGGUGUCUUUGUUUCAAAUGGC | -1.39 | -0.949 | -0.592 | -1.16
AAAUUUACAAAACACCACCAAUUAAAGAUUUUGGUGGUUUUAAUUU [DMSMaPseq_invitro_SARS-CoV-2_Motif_425] | 1.06 | -0.725 | 0.331 | 1.34
CCUAUACUGUUACUAGAUCAGGCAUUAGUGUCUGAUGUUGGUGAUAGUGCGG [DMSMaPseq_invitro_SARS-CoV-2_Motif_147] | 0.0062 | -0.184 | 0.0824 | 0.0141
CUUUACCAACCACCACAAACCUCUAUCACCUCAGCUGUUUUGCAGAGUGGUUUUAGAAAAAUGGCAUUCCCAUCUGGUAAAG | -0.0807 | -0.0806 | 0.13 | -0.0485
AUGUCAUAUUGGAGUUGGACUGCAGGGCUUCCUUUACACAAUAAAUAUUGUAUGAAGUGCUGAUGUAACCUUUACUGCAGCAUGACAU [hsa-mir-3976] | 0.227 | 0.0127 | -0.081 | 0.131
UAGUACAACAGGAGUCACCUUUUGUUAUGAUGUCAGCACCACCUGCUCAGUAUGAACUUAAGCAUGGUACAUUUACUUGUGCUA | -0.168 | -0.0314 | -0.518 | -0.521
AGUACACCUUUGAAAAAGGUGACU | -1.22 | -1.09 | -0.572 | -0.883
GGGACUGAGAAUUAGCUCAUCCU [IAV_invivo_PB2_1_Motif_14+IAV_invivo_PB2_1_Motif_14] | -0.536 | 0.208 | -0.318 | -0.573
GGAUGUCAAUCC [IAV_invivo_PB1_2_Motif_2+IAV_invivo_PB1_2_Motif_2] | 0.0736 | -0.856 | -0.17 | 0.302
AAAUUCUUGGAACUGUUUCUUGGAAUUU | -1.22 | -1.37 | -0.163 | -0.802
CUGUGGGUUUUACACUUAAAAACACAG [DMSMaPseq_invitro_SARS-CoV-2_Motif_239] | -0.32 | -0.754 | -0.131 | -0.233
GCUCUCUGAUGC [IAV_invivo_NP_5_Motif_10+IAV_invivo_NP_5_Motif_10] | -0.672 | -0.464 | -0.589 | -0.607
GGGGCCGGGGCCGGGGCCGGGGCCGGGGCCGGGGCC [G4_r(GGGGCC)8] | 3.9 | 3.77 | 4.66 | 4.47
GGGAAAGAAGUCCU [IAV_invivo_HA_4_Motif_8+IAV_invivo_HA_4_Motif_8] | -0.705 | -0.872 | -0.278 | -0.398
AACCAUACAGGUGUUGUUGGAGAAGGUU [DMSMaPseq_invitro_SARS-CoV-2_Motif_31] | -0.0691 | -0.444 | 0.125 | 0.0755
